According to the supplement of paper PMC12042874:
± gives the uncertainty stated by the source.

Assay: amyloid nucleation score (Sup35N fusion, yeast selection) (log enrichment); library NNK2; higher = more nucleation; inactive = no reads after selection
Procedure, shortened: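 Libraries of peptides of 20 random codons fused to Sup35N were expressed in psi-negative yeast and induced 24 hours with 100 μM copper sulfate. Selection was 7 days at 30°C on medium lacking adenine and uracil, and plasmid inserts were Illumina-sequenced before and after selection. Nucleation score is the DiMSum log enrichment of output over input reads, centred on the mode score of non-aggregating sequences, and sequences with under 100 input reads were left out.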

Q: For GLLNMCINCGRLFASPGISG, which amyloid nucleation score is on record?
A: -0.285 ± 0.35

Q: Which amyloid nucleation score does the source give for GLMGLYRRALSTLRRILFMR here?
A: -0.072 ± 0.63

Q: For GLNQSSLCNGEMGYCRIIWR, which amyloid nucleation score is on record?
A: -1.03 ± 1.1

Q: For GLNYPAIWEARLKG, which amyloid nucleation score is on record?
A: 0.703 ± 0.29

Q: Which amyloid nucleation score does the source give for GLPFLVESMSCPCDLDTVGW here?
A: 2.27 ± 0.23

Q: With GLPSILVYL as the substance, how does the amyloid nucleation score read?
A: -1.31 ± 0.78

Q: For GLQFSATISYERPVWGGVLR, which amyloid nucleation score is on record?
A: 4.64 ± 0.066

Q: Which amyloid nucleation score does the source give for GLRCRYPSRPVTCGLLWGCG here?
A: 0.089 ± 0.37

Q: For GLREKDN, which amyloid nucleation score is on record?
A: -0.036 ± 0.32

Q: For GLRFC, which amyloid nucleation score is on record?
A: inactive

Q: Which amyloid nucleation score does the source give for GLRFVYLIYTGRS here?
A: -0.497 ± 0.64

Q: With GLSIGYSKWETALGITLSNP as the substance, how does the amyloid nucleation score read?
A: -0.864 ± 0.78

Q: With GLSNFYVFAFYRVFFSLIWA as the substance, how does the amyloid nucleation score read?
A: 3.3 ± 0.067

Q: For GLSRVDPWVYQLPSMGSHDS, which amyloid nucleation score is on record?
A: 0.706 ± 0.52

Q: Which amyloid nucleation score does the source give for GLTFRFGTGTSLSRRFDATV here?
A: 6.507 ± 0.045

Q: With GLTPSISSLRCIGSRFGKFS as the substance, how does the amyloid nucleation score read?
A: 0.86 ± 0.46

Q: With GLVVTSNPSDMSVMELCLWF as the substance, how does the amyloid nucleation score read?
A: -0.347 ± 0.3

Q: Which amyloid nucleation score does the source give for GMFIMQNGLFYRQSLVAWW here?
A: -0.995 ± 0.45

Q: For GMGQQEVPNWGMATGCGYEE, which amyloid nucleation score is on record?
A: 0.081 ± 1.1

Q: For GMGVYYVSSFSLRLWNGMTV, which amyloid nucleation score is on record?
A: 1.65 ± 0.13

Q: For GMLKTLSMMHTLIWYFLWDT, which amyloid nucleation score is on record?
A: -0.62 ± 0.79

Q: Which amyloid nucleation score does the source give for GMNLNLPTQTHTSVRHNRG here?
A: 2.75 ± 0.14

Q: With GMNWGWRFVNIFY as the substance, how does the amyloid nucleation score read?
A: 5.848 ± 0.031

Q: For GMSERRWSCQLVGAVHDMAA, which amyloid nucleation score is on record?
A: 1.17 ± 0.14

Q: With GNADRF as the substance, how does the amyloid nucleation score read?
A: -1.12 ± 0.63

Q: With GNAQGSTFYVVPFIQYRVFM as the substance, how does the amyloid nucleation score read?
A: 6.744 ± 0.035

Q: Which amyloid nucleation score does the source give for GNCLEYIVRNTIANKRSRML here?
A: -0.114 ± 1

Q: For GNFWAFISRRQSRGFLDSAL, which amyloid nucleation score is on record?
A: -0.412 ± 1.1

Q: Which amyloid nucleation score does the source give for GNLSVTAILWLMRYECLNLS here?
A: -0.431 ± 0.64

Q: For GNLWGYECVYINKQICGSSR, which amyloid nucleation score is on record?
A: 3.49 ± 0.05

Q: Which amyloid nucleation score does the source give for GNRIPVTRGLVKDRSKLVGV here?
A: 0.007 ± 1.1

Q: For GNSGYPTV, which amyloid nucleation score is on record?
A: 1.02 ± 0.24

Q: For GPEWSSLGSKVRLHWINSM, which amyloid nucleation score is on record?
A: 0.626 ± 0.8

Q: With GPSMCFGEFKVYAEVSWSQA as the substance, how does the amyloid nucleation score read?
A: 0.095 ± 0.34

Q: For GPTSVRISPPGVCVLCPPSP, which amyloid nucleation score is on record?
A: 0.133 ± 0.31

Q: With GQACRMYTVSVFVILNLGYQ as the substance, how does the amyloid nucleation score read?
A: 2.53 ± 0.076

Q: Which amyloid nucleation score does the source give for GQNLDRSVKGWCTASHTGSF here?
A: 0.554 ± 0.54

Q: With GRENWELHIRYVR as the substance, how does the amyloid nucleation score read?
A: 4.06 ± 0.063

Q: Which amyloid nucleation score does the source give for GRFLLSLATVSGLCTSRLEI here?
A: -0.169 ± 0.39

Q: For GRIVRSVLSSIVCILMSYWM, which amyloid nucleation score is on record?
A: 0.821 ± 0.31

Q: With GRLNPPLLLRIRSVSYAIPV as the substance, how does the amyloid nucleation score read?
A: 0.783 ± 0.58

Q: With GRLSWFS as the substance, how does the amyloid nucleation score read?
A: -0.624 ± 0.49

Q: For GRRHVNFCSRTDYRAGPHRY, which amyloid nucleation score is on record?
A: 0.112 ± 1.1

Q: With GRTGFFYLGAKYVSHEGAGK as the substance, how does the amyloid nucleation score read?
A: inactive

Q: Which amyloid nucleation score does the source give for GRVVSSFSLKSDNFMMYFRI here?
A: -1.18 ± 1.1

Q: Which amyloid nucleation score does the source give for GRVWVW here?
A: 0.718 ± 0.57

Q: For GRWLSFKFSDDRQRVRYRVH, which amyloid nucleation score is on record?
A: -0.158 ± 0.63

Q: Which amyloid nucleation score does the source give for GSASSCGCMMWQCKAICPNS here?
A: -0.4 ± 0.63

Q: For GSCNVMGRCRIFGLGFWGIV, which amyloid nucleation score is on record?
A: inactive

Q: Which amyloid nucleation score does the source give for GSCPRSDAKSAADCIQV here?
A: -0.177 ± 0.79

Q: With GSGNT as the substance, how does the amyloid nucleation score read?
A: 0.444 ± 0.56

Q: For GSKRCSFRGLCIIYSVSMCS, which amyloid nucleation score is on record?
A: 6.996 ± 0.044

Q: Which amyloid nucleation score does the source give for GSLKEAAGEYMVCRVRLSVG here?
A: 0.26 ± 0.46

Q: With GSLTKSLSKTTQLR as the substance, how does the amyloid nucleation score read?
A: inactive

Q: For GSPNLVSV, which amyloid nucleation score is on record?
A: 0.401 ± 0.56

Q: Which amyloid nucleation score does the source give for GSRAFALSTCCFMKYGSGMG here?
A: 8.075 ± 0.078

Q: For GSSNGRALLYCITLKIMGIV, which amyloid nucleation score is on record?
A: 0.769 ± 0.4

Q: With GSSWLRPALLVNAMIDWSRV as the substance, how does the amyloid nucleation score read?
A: 0.934 ± 0.36

Q: Which amyloid nucleation score does the source give for GSWDFSGAIMGLSYSKTVYI here?
A: -1.18 ± 1.1

Q: For GSYSNAIFIHKLKNKHCFQS, which amyloid nucleation score is on record?
A: inactive

Q: With GTLELMHETWVPSLYPVRMQ as the substance, how does the amyloid nucleation score read?
A: 0.571 ± 0.4

Q: With GTLPYDNRTTYAFYLRVCSL as the substance, how does the amyloid nucleation score read?
A: inactive

Q: For GTSLYGFSPTAHVRVSHRGE, which amyloid nucleation score is on record?
A: 0.957 ± 0.47

Q: For GTTMTPFPRKCFRSVILFVG, which amyloid nucleation score is on record?
A: 1.1 ± 0.3

Q: Which amyloid nucleation score does the source give for GTYAKSMLSSKVVAG here?
A: 1.48 ± 0.18

Q: With GTYRNIRVWCRFRWVFENGC as the substance, how does the amyloid nucleation score read?
A: 0.11 ± 0.74

Q: With GVARESRAGS as the substance, how does the amyloid nucleation score read?
A: 4.96 ± 0.066

Q: With GVAYRWPFGQK as the substance, how does the amyloid nucleation score read?
A: 0.155 ± 1.1

Q: For GVCNYPPCPGMMKGKTSLGN, which amyloid nucleation score is on record?
A: 1.32 ± 0.26

Q: With GVCSSNWVYVLLDVDDVISR as the substance, how does the amyloid nucleation score read?
A: -0.564 ± 0.39

Q: Which amyloid nucleation score does the source give for GVHTLWNRMKWPIENRVYGS here?
A: 1.59 ± 0.3

Q: For GVIKWKRQETLNHSWGSESE, which amyloid nucleation score is on record?
A: 5.24 ± 0.072

Q: With GVLFAELLIFVVKSSVVV as the substance, how does the amyloid nucleation score read?
A: 2.01 ± 0.23

Q: Which amyloid nucleation score does the source give for GVLGLAFDC here?
A: 0.662 ± 0.81

Q: With GVLKVLLLAPISFTVVCHSS as the substance, how does the amyloid nucleation score read?
A: 3.65 ± 0.055

Q: Which amyloid nucleation score does the source give for GVLMCVAVYRFVCMKRSGML here?
A: 0.039 ± 0.19

Q: With GVSHMALSSARSFMITDLRS as the substance, how does the amyloid nucleation score read?
A: 3.44 ± 0.14

Q: Which amyloid nucleation score does the source give for GVTPG here?
A: 0.752 ± 0.16

Q: For GVVTFV, which amyloid nucleation score is on record?
A: 0.157 ± 0.76

Q: For GVVTSSSRYLY, which amyloid nucleation score is on record?
A: 0.072 ± 1.1

Q: Which amyloid nucleation score does the source give for GVYIRVVSHEWVLFW here?
A: inactive

Q: For GWNGNLSGTAHLGSSIVSSG, which amyloid nucleation score is on record?
A: -0.649 ± 0.79

Q: Which amyloid nucleation score does the source give for GWSSSHVWVGLNS here?
A: 2.44 ± 0.21

Q: Which amyloid nucleation score does the source give for GYASTSKAKISAIRAIRP here?
A: 0.339 ± 0.31

Q: With GYAWPRGTSGVA as the substance, how does the amyloid nucleation score read?
A: 0.353 ± 0.4

Q: For GYCLMTFLISTCYG, which amyloid nucleation score is on record?
A: 5.166 ± 0.031

Q: Which amyloid nucleation score does the source give for GYCQVKSGCCSGEECCFWMI here?
A: 3.68 ± 0.099

Q: For GYDFT, which amyloid nucleation score is on record?
A: inactive

Q: Which amyloid nucleation score does the source give for GYGWKLQMTGGESCVGSHLR here?
A: 0.388 ± 0.66

Q: For GYNKLSLSL, which amyloid nucleation score is on record?
A: -0.863 ± 0.64

Q: With GYNQEYRLSTMKAMLGRLLV as the substance, how does the amyloid nucleation score read?
A: inactive

Q: For GYRSHSDNNICNVSGSHTYI, which amyloid nucleation score is on record?
A: 3.96 ± 0.065

Q: With GYRSIFLLFFPADHPLHTIY as the substance, how does the amyloid nucleation score read?
A: -0.064 ± 1.1

Q: With GYSFRYTFCSHSGDVAVVSK as the substance, how does the amyloid nucleation score read?
A: -0.739 ± 1

Q: With GYVFYNFFYSAQSRLSSLSN as the substance, how does the amyloid nucleation score read?
A: 0.52 ± 0.15

Q: Which amyloid nucleation score does the source give for GYWTGELH here?
A: inactive

Q: For HACGIVHRPLLRD, which amyloid nucleation score is on record?
A: -0.191 ± 0.33

Q: Which amyloid nucleation score does the source give for HASVHL here?
A: 0.497 ± 0.34

Q: For HATVHSSRCHSYHPGL, which amyloid nucleation score is on record?
A: 6.707 ± 0.054

Q: Which amyloid nucleation score does the source give for HCNCHRIVYLECVLPYIHCI here?
A: -0.919 ± 0.55

Q: With HCYSPSKIRVNAIFLHIFL as the substance, how does the amyloid nucleation score read?
A: inactive

Q: Which amyloid nucleation score does the source give for HDPRIYW here?
A: 0.441 ± 0.27

Q: For HDYVRLPEWFLSMGDHMYMC, which amyloid nucleation score is on record?
A: -0.356 ± 1.1

Q: For HEESDGPNERTILVCSICVI, which amyloid nucleation score is on record?
A: 0.487 ± 0.28

Q: With HEKGIKVVQGGQVYGITVEV as the substance, how does the amyloid nucleation score read?
A: 0.093 ± 0.39

Q: Which amyloid nucleation score does the source give for HEMVTRQRLVTSRQYLSLGV here?
A: 1.11 ± 0.29

Q: For HEPNSYHPRVGLIQELWHCG, which amyloid nucleation score is on record?
A: 0.473 ± 0.45

Q: With HESRGCSHKTNSMCGHLILL as the substance, how does the amyloid nucleation score read?
A: -0.309 ± 0.45

Q: With HEVVKFK as the substance, how does the amyloid nucleation score read?
A: 0.016 ± 1.1

Q: Which amyloid nucleation score does the source give for HEYLRGRGTFGNIQDYNKLM here?
A: -0.447 ± 1.1

Q: For HEYQFSYDFKFLFGSQIMYM, which amyloid nucleation score is on record?
A: inactive

Q: Which amyloid nucleation score does the source give for HFCYKMRLKDDCVCFKGYTI here?
A: 4.03 ± 0.058

Q: With HFCYSNNRWVSGAFYVSRPT as the substance, how does the amyloid nucleation score read?
A: 1.78 ± 0.2

Q: Which amyloid nucleation score does the source give for HFKFYRNNYMTVIVHKACDV here?
A: 8.665 ± 0.083

Q: Which amyloid nucleation score does the source give for HFTSRLKIRSTIVAVVNVSS here?
A: 3.16 ± 0.078

Q: For HFTTLGILLRCRGLSVLPKV, which amyloid nucleation score is on record?
A: -0.329 ± 0.39

Q: For HFVRVSFGCCLVTLSMRVDR, which amyloid nucleation score is on record?
A: 0.669 ± 0.26

Q: With HGAVGCAS as the substance, how does the amyloid nucleation score read?
A: -0.002 ± 1

Q: For HGRKNFSVGVVVVLWLRLFV, which amyloid nucleation score is on record?
A: 5.63 ± 0.081

Q: With HHSWRYRLYVSIDSSFCLGA as the substance, how does the amyloid nucleation score read?
A: inactive

Q: For HIEFDRWAPHLVDLPTGPMK, which amyloid nucleation score is on record?
A: inactive

Q: For HIGHSWIGSALDTLAYEGYY, which amyloid nucleation score is on record?
A: -0.49 ± 0.76

Q: Which amyloid nucleation score does the source give for HIKLYSDYTCKLMPSLTWQR here?
A: 4.8 ± 0.08

Q: Which amyloid nucleation score does the source give for HIPRCINLVVRCTVKLVDGS here?
A: 2.35 ± 0.14

Q: Which amyloid nucleation score does the source give for HIVAGCIVQLANILWDRAEG here?
A: 0.57 ± 0.38
